Results taken from the supplement of paper PMC10567573.

B1: FLOT1 (parent)
chain: QMAKKAEAFQLYQEAAQLDMLLEK
B2: ANKRD44 (parent)
chain: FHCIETLVTTGANVNETDDWGRTA

Variants of: B1
Assay: protein stability index of a GFP-peptide fusion (GPS, HEK-293T) (PSI 1-6); higher = more stable
Conditions: c terminus: a fixed tail appended
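Also: lentivirally expressed fusions sorted by FACS into six bins by GFP to DsRed ratio, PSI derived from sequencing read proportions per bin multiplied by bin number.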

Protein stability index, by site and new letter:
L22: A 1.32; D 2.54; N 2.03; C 2.42; S 2.63; V 2.33; P 3.9; M 2.02; I 1.72; F 2.23; W 1.5; Y 1.5; T 3.36; G 3.76; H 2.48; R 2.42; E 1.61; Q 2.08; K 3.07
L21: H 3.47; W 1.69; E 2.7; K 2.19; G 4.02; T 2.97; R 3.19; I 2; C 2.9; P 4.51; Y 2.04; N 3.38; D 2.58; A 2.09; M 1.84; S 3.46; V 2.35; Q 1.75; F 2.35
K24: R 2.13; N 2.83; F 2.2; Y 2.35; C 2.28; H 2.67; V 1.73; D 3.76; Q 2.55; L 2.08; G 2.89; P 3.37; I 3.41; A 2.53; T 3.03; M 2.23; E 4.03; S 3.36; W 2.57
E23: Y 1.81; N 2.35; I 1.62; K 2.11; G 3.26; S 2.53; P 3.12; A 2.29; T 1.51; M 1.28; D 3.79; R 1.39; C 2.27; Q 1.75; W 1.98; F 1.72; H 2.15; L 2.21; V 1.98
M20: D 4.03; H 2.94; Q 3.1; V 2.38; Y 2.08; F 2.25; I 3.46; T 3.22; S 3.69; L 1.85; N 2.47; R 2.98; K 2.55; P 4.52; A 2.75; E 3.76; C 1.97; G 3.94
L18: W 2.03; I 2.17; G 3.8; S 2.51; P 3.9; T 3.56; V 1.85; N 2.66; H 1.83; Y 1.46; K 2.9; M 2.22
D19: M 2.85; Q 1.83; N 1.91; R 1.53; L 1.24; K 1.65; W 1.34; G 1.48; V 3.13; A 2.65; P 3.95; I 1.5; S 1.29; Y 2.35; E 1.87; H 1.8; T 2.66; F 1.69; C 2.13

Variants of: B2
Assay: as above
Conditions: c terminus: a fixed tail appended

Protein stability index, by site and new letter:
A12: I 1.7; F 2.61; G 1.52; K 2.07; H 2.1; E 2.31; C 1.1; D 1.87
H2: S 3.36; P 3.77; N 3.37; D 4.54; A 2.89; Q 3.27; I 1.62; K 3.34; M 2.64; W 1.68; E 3.9; G 3.71; C 2.05; L 2.31; F 1.8; T 3.08; V 1.74; Y 1.89; R 3.46
E5: I 2.98; N 2.03; W 2.26; S 1.92; D 2.23; H 2.76; T 1.82; Y 3.36; Q 1.48; L 4.06; G 2.11; P 2.43; K 2.14; A 2.31; C 2.02; R 1.55
G11: F 1.47; R 2.6; V 2.09; S 1.68; A 1.79; K 2.29; Q 1.74; I 2.62; T 2.29; C 2.09; P 2.23; H 1.53; N 2; Y 2.39; D 2.88; E 2.94; W 2.99; L 2.44; M 1.5
V8: T 2.29; M 2.2; G 1.89; Q 3; P 3.48; K 2.42; R 2.15; D 3.76; C 2.03; H 2.45; E 3.35; S 3.12; N 2.86; L 1.4; A 2.05; I 1.8; F 2.26; Y 2.27
L7: R 2.66; Y 3.58; S 2.57; V 2.19; K 2.89; Q 2.49; H 2.56; G 2.42; A 2.2; N 3.08; C 2.01; E 3.82; D 4.03; F 2.86; P 3.04; M 2.19; T 2.85; I 2.23
T9: C 1.78; D 3.26; G 2.7; S 2.23; F 1.25; Y 1.54; I 2.67; Q 2.63; R 1.86; M 1.45; V 1.6; H 2.18; P 2.06; L 1.77; A 2.01; E 3.12; K 2.83; N 2.56
T6: E 2.69; K 1.93; F 2.03; P 2.08; M 2.18; L 3.01; H 2.52; G 1.73; S 2.71; D 3.61; W 3.88; V 3.28; Q 2.16; Y 3.59; A 2.16; N 2.52; R 1.96; C 1.75
T10: C 1.96; M 1.71; L 1.65; S 2.08; I 1.7; P 2.36; N 2.66; Q 2.63; R 2.34; D 3.46; K 2.24; A 1.72; Y 2.14; E 2.37; V 2.17; G 1.92; H 2.08; W 2.68
C3: A 1.79; S 2.69; D 3.62; H 2.79; T 2.65; G 2.89; K 3.8; M 2.31; L 2.05; N 2.21; E 3.96; Q 3.03; I 1.78; P 3.36; Y 2.19; W 2.47; F 2; V 2.62; R 2.47
I4: Q 2; W 3.86; A 2.1; E 3.59; L 2.65; H 2.15; T 2.87; N 2.87; G 2.66; R 2.61; K 2.11; S 2.69; Y 1.9; P 2.19; M 2.16; V 2.44; C 2.33; D 3.41; F 2.36
F1: R 3.48; W 3.18; H 4.18; G 4.25; D 4.81; A 4.69; L 3.31; Y 2.07; K 4.18; S 4.04; T 4.25; C 2.18; V 3.68; M 4.54; I 3.13; N 4.5; Q 4.54; P 4.56; E 4.77
